Values of other authors in paper PMC7529620.

Biological target: NCAM/GFRα1 (Homo sapiens) (UniProt P13591)
UniProt P13591, sequence (P13591 20-718, chain 1 of 2): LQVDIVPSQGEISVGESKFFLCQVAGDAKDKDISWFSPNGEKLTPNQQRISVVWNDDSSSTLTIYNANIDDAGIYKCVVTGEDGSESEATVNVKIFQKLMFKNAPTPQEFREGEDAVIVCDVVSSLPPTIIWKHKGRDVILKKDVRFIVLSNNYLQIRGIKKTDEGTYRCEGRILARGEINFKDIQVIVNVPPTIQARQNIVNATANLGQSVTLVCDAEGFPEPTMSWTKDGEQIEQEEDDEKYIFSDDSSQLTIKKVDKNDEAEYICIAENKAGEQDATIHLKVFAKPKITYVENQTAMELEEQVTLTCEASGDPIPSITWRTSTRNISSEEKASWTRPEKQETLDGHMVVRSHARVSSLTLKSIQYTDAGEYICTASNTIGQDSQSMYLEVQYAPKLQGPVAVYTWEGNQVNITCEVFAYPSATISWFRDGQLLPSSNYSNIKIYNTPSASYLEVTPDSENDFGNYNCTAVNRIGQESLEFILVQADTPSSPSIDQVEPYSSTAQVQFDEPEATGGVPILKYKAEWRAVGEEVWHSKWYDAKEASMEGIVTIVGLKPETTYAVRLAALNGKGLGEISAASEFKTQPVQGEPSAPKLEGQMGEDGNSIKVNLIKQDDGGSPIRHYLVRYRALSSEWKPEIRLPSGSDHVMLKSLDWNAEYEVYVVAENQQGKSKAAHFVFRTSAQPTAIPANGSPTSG
UniProt P13591, sequence (P56159 25-429, chain 2 of 2, further chain): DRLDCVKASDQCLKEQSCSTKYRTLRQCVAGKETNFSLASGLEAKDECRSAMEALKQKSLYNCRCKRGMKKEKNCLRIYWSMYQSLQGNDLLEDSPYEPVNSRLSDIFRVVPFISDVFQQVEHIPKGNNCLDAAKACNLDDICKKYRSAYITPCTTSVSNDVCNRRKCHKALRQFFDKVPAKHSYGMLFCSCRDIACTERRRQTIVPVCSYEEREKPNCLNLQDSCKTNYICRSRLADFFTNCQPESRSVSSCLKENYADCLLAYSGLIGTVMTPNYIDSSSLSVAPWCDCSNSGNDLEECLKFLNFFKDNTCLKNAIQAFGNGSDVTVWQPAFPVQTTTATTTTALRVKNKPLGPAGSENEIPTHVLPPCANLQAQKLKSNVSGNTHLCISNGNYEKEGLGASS

Kd: 1 nM
Substance: GDNF (from UniProt P39905)
